The test system of experiment [1] is C57MG mammary epithelial cell line. Nature of the experiment: Aβ levels in C57MG cells infected with Wnt retrovirus. The experiment is classed as cell-based, mouse. Conditions: C57MG cells infected with retrovirus expressing the Wnt protein.
For experiment [2], the system named is PC12 cells. Nature of the experiment: Aβ levels by ELISA in Wnt1-expressing PC12 lines. The experiment is classed as cell-based. Conditions: 12 independent Wnt1-expressing PC12 lines. From the text: (§1) A retrovirus encoding the Wnt1 protein was introduced into PC12 cells as described in Mol. Cell. Biol. 14:466, (1995), and twelve independent Wnt1-expressing lines were established. Wnt1 expression in the lines was examined by measuring β-catenin levels.

The test system of experiment [3] is PC12 cells. Nature of the experiment: β-catenin levels in Wnt1-expressing PC12 lines. The experiment is classed as cell-based. Conditions: 12 independent Wnt1-expressing PC12 lines.
Excerpt: as §1

B1: Wnt5a: Wnt family member expressed in C57MG cells from a Wnt5a retrovirus (protein, UniProt P22725 62-380, looked up)
Protein Wnt-5a: IIGAQPLCSQLAGLSQGQKKLCHLYQDHMQYIGEGAKTGIKECQYQFRHRRWNCSTVDNTSVFGRVMQIGSRETAFTYAVSAAGVVNAMSRACREGELSTCGCSRAARPKDLPRDWLWGGCGDNIDYGYRFAKEFVDARERERIHAKGSYESARILMNLHNNEAGRRTVYNLADVACKCHGVSGSCSLKTCWLQLADFRKVGDALKEKYDSAAAMRLNSRGKLVQVNSRFNSPTTQDLVYIDPSPDYCVRNESTGSLGTQGRLCNKTSEGMDGCELMCCGRGYDQFKTVQTERCHCKFHWCCYVKCKKCTEIVDQFVCK
Consider B1, for which the Aβ levels result in experiment [1] is listed as “did not show increased Aβ levels”.

B2: Wnt1: Wnt1 protein, member of the Wnt family, expressed in cells from a retrovirus encoding it (protein, UniProt P04426 28-370, looked up)
Proto-oncogene Wnt-1: ANSSGRWWGIVNIASSTNLLTDSKSLQLVLEPSLQLLSRKQRRLIRQNPGILHSVSGGLQSAVRECKWQFRNRRWNCPTAPGPHLFGKIVNRGCRETAFIFAITSAGVTHSVARSCSEGSIESCTCDYRRRGPGGPDWHWGGCSDNIDFGRLFGREFVDSGEKGRDLRFLMNLHNNEAGRTTVFSEMRQECKCHGMSGSCTVRTCWMRLPTLRAVGDVLRDRFDGASRVLYGNRGSNRASRAELLRLEPEDPAHKPPSPHDLVYFEKSPNFCTYSGRLGTAGTAGRACNSSSPALDGCELLCCGRGHRTRTQRVTERCNCTFHWCCHVSCRNCTHTRVLHECL
B2: the “levels of Aβ peptide in the cell lines” value with PC12 cells [2] (ELISA) was “positively correlated with Wnt1 expression”. Moreover, the “Aβ levels in the culture media” value in the experiment with PC12 cells [2] (culture media) was “positive correlation with Wnt1 expression”. In the experiment with PC12 cells [3], the β catenin stabilization entry is listed as “positively correlated with the degree of β catenin stabilization”. In addition, the Aβ levels result in experiment [1] is reported as “increase in Aβ levels”.

Values taken from patent publication US6403325B1, “Methods and compounds for treating alzheimer's disease” (priority 1997, dated 2002).
